Assay results: patent US20240360203A1
Read-outs that look alike come from different tables or passages of the source.

Key:
Experiment in all cases: cell-based or functional assay
[1] = target: SARS-CoV-2 BA.2.12.1 Spike on pseudovirus (SARS-CoV-2) (UniProt P0DTC2)
[2] = target: SARS-CoV-2 BA.1 Spike on pseudovirus (SARS-CoV-2) (UniProt P0DTC2)
[3] = target: SARS-CoV-2 BA.4/5 Spike on pseudovirus (SARS-CoV-2) (UniProt P0DTC2)
[4] = target: SARS-CoV-2 Delta Spike on pseudovirus (SARS-CoV-2) (UniProt P0DTC2)
[5] = target: SARS-CoV-2 BA.2 Spike on pseudovirus (SARS-CoV-2) (UniProt P0DTC2)
[6] = target: SARS-CoV-2 BA.2.12.1 Spike on pseudovirus (SARS-CoV-2) (UniProt P0DTC2); remark: listed apart in the source
[7] = target: SARS-CoV-2 BA.1 Spike on pseudovirus (SARS-CoV-2) (UniProt P0DTC2); remark: listed apart in the source
[8] = target: SARS-CoV-2 BA.4/5 Spike on pseudovirus (SARS-CoV-2) (UniProt P0DTC2); remark: listed apart in the source
[9] = target: SARS-CoV-2 Delta Spike on pseudovirus (SARS-CoV-2) (UniProt P0DTC2); remark: listed apart in the source
[10] = target: SARS-CoV-2 BA.2 Spike on pseudovirus (SARS-CoV-2) (UniProt P0DTC2); remark: listed apart in the source
[11] = target: SARS-CoV-2 Delta (B.1.617.2) spike protein (SARS-CoV-2)
[12] = target: SARS-CoV-2 BA.4/5 Spike on pseudovirus (SARS-CoV-2) (UniProt P0DTC2); remark: listed apart in the source
[13] = target: SARS-CoV-2 XBB.1.5 spike protein (SARS-CoV-2)
[14] = target: SARS-CoV-2 Delta (B.1.617.2) spike protein (SARS-CoV-2); remark: listed apart in the source
[15] = target: SARS-CoV-2 BQ.1.1 spike protein (SARS-CoV-2)
[16] = target: SARS-CoV-2 XBB.1.5 spike protein (SARS-CoV-2); remark: listed apart in the source
[17] = target: SARS-CoV-2 Delta (B.1.617.2) spike protein (SARS-CoV-2); remark: listed apart in the source
[18] = target: SARS-CoV-2 BF.7.14 spike protein (SARS-CoV-2)
[19] = target: SARS-CoV-2 XBB.1 spike protein (SARS-CoV-2)
[20] = target: SARS-CoV-2 CH.1.1 spike protein (SARS-CoV-2)
[21] = target: SARS-CoV-2 BA.2.3.20 spike protein (SARS-CoV-2)
[22] = target: SARS-CoV-2 BA.2.12.1 spike protein (SARS-CoV-2)
[23] = target: SARS-CoV-2 BA.2.75 spike protein (SARS-CoV-2)
[24] = target: SARS-CoV-2 BA.2 spike protein (SARS-CoV-2)
[25] = target: SARS-CoV-2 BA.4.6 spike protein (SARS-CoV-2)
[26] = target: SARS-CoV-2 BA.2.75.2 spike protein (SARS-CoV-2)
[27] = target: SARS-CoV-2 BN.1 spike protein (SARS-CoV-2)
[28] = target: SARS-CoV-2 BQ.1.1 spike protein (SARS-CoV-2); remark: listed apart in the source
[29] = target: SARS-CoV-2 BA.4/5 spike protein (SARS-CoV-2)
[30] = target: SARS-CoV-2 BA.1 spike protein (SARS-CoV-2)
[31] = target: SARS-CoV-2 BQ.1 spike protein (SARS-CoV-2)
[32] = target: SARS-CoV-2 BA.1.1 spike protein (SARS-CoV-2)
[33] = target: SARS-CoV-2 BF.7 spike protein (SARS-CoV-2)
[34] = target: SARS-CoV-2 Delta (B.1.617.2) spike protein (SARS-CoV-2); remark: listed apart in the source
[35] = target: SARS-CoV-2 Delta (B.1.617.2) spike protein (SARS-CoV-2); remark: listed apart in the source

Substance: AZD1061 (antibody)
- IC50, pseudovirus neutralization [1]: 5.1 ng/mL
- IC50, pseudovirus neutralization [2]: 1220 ng/mL
- IC50, pseudovirus neutralization [3]: 41.2 ng/mL
- IC50, pseudovirus neutralization [4]: 5.9 ng/mL
- IC50, pseudovirus neutralization [5]: 5.8 ng/mL
- % neutralization at 4.5 µg/ml, pseudovirus [6]: 99.8%
- % neutralization at 4.5 µg/ml, pseudovirus [7]: 83.9%
- % neutralization at 4.5 µg/ml, pseudovirus [8]: 96.7%
- % neutralization at 4.5 µg/ml, pseudovirus [9]: 100%
- % neutralization at 4.5 µg/ml, pseudovirus [10]: 99.7%

Substance: AZD8895 (antibody)
- IC50, pseudovirus neutralization [1]: 415 ng/mL
- IC50, pseudovirus neutralization [2]: 1160 ng/mL
- IC50, pseudovirus neutralization [4]: 0.5 ng/mL
- IC50, pseudovirus neutralization [5]: 608 ng/mL
- % neutralization at 4.5 µg/ml, pseudovirus [6]: 94.2%
- % neutralization at 4.5 µg/ml, pseudovirus [7]: 96.5%
- % neutralization at 4.5 µg/ml, pseudovirus [8]: 25.8%
- % neutralization at 4.5 µg/ml, pseudovirus [9]: 102%
- % neutralization at 4.5 µg/ml, pseudovirus [10]: 93.9%

Substance: Bebtelovimab (antibody)
- pseudovirus neutralization EC50, Vero E6 (bebtelovimab + isotype) [11]: 0.44 ng/mL
- IC50, pseudovirus neutralization [12]: 0.3 ng/mL
- pseudovirus neutralization Emax, Vero E6 (bebtelovimab + isotype) (% neutralization) [13]: 0.55
- pseudovirus neutralization Emax, Vero E6 (bebtelovimab + isotype) (% neutralization) [14]: 99.7
- pseudovirus neutralization Emax, Vero E6 (bebtelovimab + isotype) (% neutralization) [15]: 55.6
- pseudovirus neutralization Emax (% neutralization) [16]: 2.01
- pseudovirus neutralization Emax, TMPRSS2-Vero E6 (bebtelovimab + isotype) (% neutralization) [16]: 2.93
- pseudovirus neutralization Emax, Vero E6 (bebtelovimab + isotype) (% neutralization) [16]: 4.21
- pseudovirus neutralization EC50 [17]: 3.8 ng/mL
- pseudovirus neutralization EC50, TMPRSS2-Vero E6 (bebtelovimab + isotype) [17]: 1.6 ng/mL
- pseudovirus neutralization EC50, Vero E6 (bebtelovimab + isotype) [17]: 0.63 ng/mL
- pseudovirus neutralization EC80 [17]: 23 ng/mL
- pseudovirus neutralization EC80, TMPRSS2-Vero E6 (bebtelovimab + isotype) [17]: 13 ng/mL
- pseudovirus neutralization EC80, Vero E6 (bebtelovimab + isotype) [17]: 4.2 ng/mL
- pseudovirus neutralization EC90 [17]: 66 ng/mL
- pseudovirus neutralization EC90, TMPRSS2-Vero E6 (bebtelovimab + isotype) [17]: 43 ng/mL
- pseudovirus neutralization EC90, Vero E6 (bebtelovimab + isotype) [17]: 13 ng/mL
- pseudovirus neutralization Emax (% neutralization) [17]: 99.9
- pseudovirus neutralization Emax, TMPRSS2-Vero E6 (bebtelovimab + isotype) (% neutralization) [17]: 99.7
- pseudovirus neutralization Emax, Vero E6 (bebtelovimab + isotype) (% neutralization) [17]: 99.7
- pseudovirus neutralization EC50 [18]: 0.22 ng/mL
- pseudovirus neutralization EC80 [18]: 1.4 ng/mL
- pseudovirus neutralization EC90 [18]: 4.1 ng/mL
- pseudovirus neutralization Emax (% neutralization) [18]: 99.8
- pseudovirus neutralization Emax (% neutralization) [19]: 10.8
- pseudovirus neutralization Emax (% neutralization) [20]: 5.32
- pseudovirus neutralization EC50 [21]: 12 ng/mL
- pseudovirus neutralization EC80 [21]: 360 ng/mL
- pseudovirus neutralization EC90 [21]: 2600 ng/mL
- pseudovirus neutralization Emax (% neutralization) [21]: 97.9
- pseudovirus neutralization EC50 [22]: 0.2 ng/mL
- pseudovirus neutralization EC80 [22]: 1.2 ng/mL
- pseudovirus neutralization EC90 [22]: 3.6 ng/mL
- pseudovirus neutralization Emax (% neutralization) [22]: 99.9
- pseudovirus neutralization EC50 [23]: 0.65 ng/mL
- pseudovirus neutralization EC80 [23]: 8.2 ng/mL
- pseudovirus neutralization EC90 [23]: 36 ng/mL
- pseudovirus neutralization Emax (% neutralization) [23]: 99.5
- pseudovirus neutralization EC50 [24]: 0.2 ng/mL
- pseudovirus neutralization EC80 [24]: 1.4 ng/mL
- pseudovirus neutralization EC90 [24]: 4.4 ng/mL
- pseudovirus neutralization Emax (% neutralization) [24]: 99.9
- pseudovirus neutralization EC50 [25]: 0.2 ng/mL
- pseudovirus neutralization EC80 [25]: 2.5 ng/mL
- pseudovirus neutralization EC90 [25]: 11 ng/mL
- pseudovirus neutralization Emax (% neutralization) [25]: 99.6
- pseudovirus neutralization EC50 [26]: 0.46 ng/mL
- pseudovirus neutralization EC80 [26]: 6.3 ng/mL
- pseudovirus neutralization EC90 [26]: 29 ng/mL
- pseudovirus neutralization Emax (% neutralization) [26]: 99.5
- pseudovirus neutralization EC50 [27]: 0.467 ng/mL
- pseudovirus neutralization EC80 [27]: 5.3 ng/mL
- pseudovirus neutralization EC90 [27]: 22 ng/mL
- pseudovirus neutralization Emax (% neutralization) [27]: 99.4
- pseudovirus neutralization Emax (% neutralization) [28]: 53
- pseudovirus neutralization Emax, TMPRSS2-Vero E6 (bebtelovimab + isotype) (% neutralization) [28]: 40.5
- pseudovirus neutralization Emax, Vero E6 (bebtelovimab + isotype) (% neutralization) [28]: 59.1
- pseudovirus neutralization EC50 [29]: 0.073 ng/mL
- pseudovirus neutralization EC80 [29]: 1.2 ng/mL
- pseudovirus neutralization EC90 [29]: 6.4 ng/mL
- pseudovirus neutralization Emax (% neutralization) [29]: 99.8
- pseudovirus neutralization EC50 [30]: 0.17 ng/mL
- pseudovirus neutralization EC80 [30]: 1.8 ng/mL
- pseudovirus neutralization EC90 [30]: 7.2 ng/mL
- pseudovirus neutralization Emax (% neutralization) [30]: 99.8
- pseudovirus neutralization Emax (% neutralization) [31]: 72.2
- pseudovirus neutralization EC50 [32]: 0.12 ng/mL
- pseudovirus neutralization EC80 [32]: 1.3 ng/mL
- pseudovirus neutralization EC90 [32]: 5.6 ng/mL
- pseudovirus neutralization Emax (% neutralization) [32]: 99.9
- pseudovirus neutralization EC50 [33]: 0.11 ng/mL
- pseudovirus neutralization EC80 [33]: 1.7 ng/mL
- pseudovirus neutralization EC90 [33]: 8.5 ng/mL
- pseudovirus neutralization Emax (% neutralization) [33]: 99.8
- pseudovirus neutralization EC90, Vero E6 (bebtelovimab + isotype) [34]: 12 ng/mL
- pseudovirus neutralization EC80, Vero E6 (bebtelovimab + isotype) [35]: 3.5 ng/mL
